Measurements from article PMC11187071.
Residue numbers refer to the chain shown, from its start. Numbers in names are those of the source. Each block holds one binder with its values, some of them ahead of it.

Experiments:
[1] = target: IgG150-18 (scFv150-18 cloned into human IgG format); assay: FACS binding assay; conditions: chain shown with the change, read off a plot
[2] = target: IgG150-18 (scFv150-18 cloned into human IgG format); assay: FACS assay on cells; conditions: chain shown with the change; highest antibody concentration point, Log [IgG150_18] (M) about -7.5; parent: est. 100; read off a plot
[3] = 100nM antibody, parent: est. 100

Chain of IgG150-18 (scFv150-18 cloned into human IgG format) (chain, as listed by the source, chain 1 of 2): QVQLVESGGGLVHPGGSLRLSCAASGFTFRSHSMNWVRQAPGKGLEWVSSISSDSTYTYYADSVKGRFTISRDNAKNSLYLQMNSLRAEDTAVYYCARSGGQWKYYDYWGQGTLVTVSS
Chain of IgG150-18 (scFv150-18 cloned into human IgG format) (chain, as listed by the source, chain 2 of 2): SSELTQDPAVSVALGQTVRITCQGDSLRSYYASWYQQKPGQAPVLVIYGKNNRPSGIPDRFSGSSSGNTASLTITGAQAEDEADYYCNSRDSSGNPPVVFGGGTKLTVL

B4: WT GPRC5D expressed on HEK293T cells, Q9NZD1 S8G; D11G; L15G; C16G; D17G (protein)
chain: MYKDCIEGTGGYFLGGGAEGPWGIILESLAILGIVVTILLLLAFLFLMRKIQDCSQWNVLPTQLLFLLSVLGLFGLAFAFIIELNQQTAPVRYFLFGVLFALCFSCLLAHASNLVKLVRGCVSFSWTTILCIAIGCSLLQIIIATEYVTLIMTRGMMFVNMTPCQLNVDFVVLLVYVLFLMALTFFVSKATFCGPCENWKQHGRLIFITVLFSIIIWVVWISMLLRGNPQFQRQPQWDDPVVCIALVTNAWVFLLLYIVPELCILYRSCRQECPLQGNACPVTAYQHSFQVENQELSRARDSDGAEEDVALTSYGTPIQPQTVDPTQECFIPQAKLSPQQDAGGV
percent of parent [2]: 3 % of WT

B5: WT GPRC5D expressed on HEK293T cells, Q9NZD1 T9A (protein)
chain: B4 chain with G8S, T9A, G11D, G15L, G16C, G17D
percent of parent ([1]; 1nM antibody, parent: est. 8): 11 % of WT
percent of parent ([1]; 10nM antibody, parent: est. 75): 82 % of WT
percent of parent [1, 3]: 100 % of WT

B6: WT GPRC5D expressed on HEK293T cells, Q9NZD1 S8A (protein)
chain: B4 chain with G8A, G11D, G15L, G16C, G17D
percent of parent ([1]; 1nM antibody, parent: est. 8): 3 % of WT
percent of parent ([1]; 10nM antibody, parent: est. 75): 65 % of WT
percent of parent [1, 3]: 92 % of WT

B8: WT GPRC5D expressed on HEK293T cells, Q9NZD1 P235G; Q236G (protein)
chain: B4 chain with G8S, G11D, G15L, G16C, G17D, P235G, Q236G
percent of parent [2]: 100 % of WT

B9: WT GPRC5D expressed on HEK293T cells, Q9NZD1 E83G; L84G (protein)
chain: B4 chain with G8S, G11D, G15L, G16C, G17D, E83G, L84G
percent of parent [2]: 97 % of WT

B10: WT GPRC5D expressed on HEK293T cells, Q9NZD1 D11A (protein)
chain: B4 chain with G8S, G11A, G15L, G16C, G17D
percent of parent [1, 3]: 42 % of WT

B11: WT GPRC5D expressed on HEK293T cells, Q9NZD1 R154G; V159G; N160G; T162G; P163G; L166G (protein)
chain: MYKDCIESTGDYFLLCDAEGPWGIILESLAILGIVVTILLLLAFLFLMRKIQDCSQWNVLPTQLLFLLSVLGLFGLAFAFIIELNQQTAPVRYFLFGVLFALCFSCLLAHASNLVKLVRGCVSFSWTTILCIAIGCSLLQIIIATEYVTLIMTGGMMFGGMGGCQGNVDFVVLLVYVLFLMALTFFVSKATFCGPCENWKQHGRLIFITVLFSIIIWVVWISMLLRGNPQFQRQPQWDDPVVCIALVTNAWVFLLLYIVPELCILYRSCRQECPLQGNACPVTAYQHSFQVENQELSRARDSDGAEEDVALTSYGTPIQPQTVDPTQECFIPQAKLSPQQDAGGV
percent of parent [2]: 82 % of WT

B12: WT GPRC5D expressed on HEK293T cells, Q9NZD1 C16A (protein)
chain: B4 chain with G8S, G11D, G15L, G16A, G17D
percent of parent ([1]; 10nM antibody, parent: est. 75): 1 % of WT

B13: WT GPRC5D expressed on HEK293T cells, Q9NZD1 S8G; D11G; L15G; C16G; D17G; E83G; L84G; R154G; V159G; N160G; T162G; P163G; L166G; P235G; Q236G (protein)
chain: B11 chain with S8G, D11G, L15G, C16G, D17G, E83G, L84G, P235G, Q236G
percent of parent [2]: 12 % of WT
percent of parent ([1]; 10nM antibody, parent: est. 75): 1 % of WT

The next lines start with the values.

percent of parent ([1]; 1nM antibody, parent: est. 8): 5 % of WT
percent of parent ([1]; 10nM antibody, parent: est. 75): 72 % of WT
percent of parent [1, 3]: 95 % of WT
B1: WT GPRC5D expressed on HEK293T cells, Q9NZD1 E83A (protein)
chain: B4 chain with G8S, G11D, G15L, G16C, G17D, E83A

percent of parent ([1]; 10nM antibody, parent: est. 75): 43 % of WT
percent of parent [1, 3]: 95 % of WT
B2: WT GPRC5D expressed on HEK293T cells, Q9NZD1 P235A (protein)
chain: B4 chain with G8S, G11D, G15L, G16C, G17D, P235A

percent of parent ([1]; 10nM antibody, parent: est. 75): 38 % of WT
percent of parent [1, 3]: 63 % of WT
B3: WT GPRC5D expressed on HEK293T cells, Q9NZD1 L15A (protein)
chain: B4 chain with G8S, G11D, G15A, G16C, G17D

percent of parent ([1]; 10nM antibody, parent: est. 75): 53 % of WT
percent of parent [1, 3]: 75 % of WT
B7: WT GPRC5D expressed on HEK293T cells, Q9NZD1 Q236A (protein)
chain: B4 chain with G8S, G11D, G15L, G16C, G17D, Q236A
